Numbering of substitutions follows the chain as printed.

In patent US20260049160A1 (Hoffmann-La Roche, published 2026) one finds Kd data, which are given here for eleven molecules.

To fix the notation:
T1: human Ang-2-RBD-Fc (human, UniProt O15123 275-496, limits assumed)
T1 construct: domain: RBD; not shown: Fc part
T1 sequence (looked up): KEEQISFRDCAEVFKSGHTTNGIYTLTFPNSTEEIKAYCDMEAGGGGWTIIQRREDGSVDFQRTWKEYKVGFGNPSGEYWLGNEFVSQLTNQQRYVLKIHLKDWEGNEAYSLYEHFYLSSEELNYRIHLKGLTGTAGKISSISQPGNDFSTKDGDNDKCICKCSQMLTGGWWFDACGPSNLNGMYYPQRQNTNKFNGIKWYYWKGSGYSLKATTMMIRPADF

T2: human VEGF-A-121-His (human, UniProt P15692-9 27-147)
T2 construct: also called VEFG-A-121-His; not shown: His tag
T2 sequence (looked up): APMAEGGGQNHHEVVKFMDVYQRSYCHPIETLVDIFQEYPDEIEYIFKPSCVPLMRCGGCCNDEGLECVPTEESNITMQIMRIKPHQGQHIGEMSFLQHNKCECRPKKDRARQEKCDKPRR

B1: Ang2VEGF-0273 (bispecific antibody, human IgG1, kappa)
light 1: QPGLTQPPSVSVAPGQTARITCGGNNIGSKSVHWYQQKPGQAPVLVVYDDSDRPSGIPERFSGSNSGNTATLTISRVEAGDEADYYCQVWDSSSDHYVFGTGTKVTVLRTVAAPSVFIFPPSDEQLKSGTASVVCLLNNFYPREAKVQWKVDNALQSGNSQESVTEQDSKDSTYSLSSTLTLSKADYEKHKVYACEVTHQGLSSPVTKSFNRGEC
heavy 1: not shown
heavy 2: not shown
light 2: EVQLVESGGGLVQPGGSLRLSCAASGYTFTNYGMNWVRQAPGKGLEWVGWINTYTGEPTYAADFKRRFTFSLDTSKSTAYLQMNSLRAEDTAVYYCAKYPHYYGSSHWYFDVWGQGTLVTVSSASVAAPSVFIFPPSDEQLKSGTASVVCLLNNFYPREAKVQWKVDNALQSGNSQESVTEQDSKDSTYSLSSTLTLSKADYEKHKVYACEVTHQGLSSPVTKSFNRGEC
notes: Bivalent CrossMab, non-crossed ANG2 arm and VH/VL-crossed VEGF arm; wild type CH1/CL interface (control)
B2: Ang2VEGF-0283 (bispecific antibody, human IgG1, lambda)
light 1: QPGLTQPPSVSVAPGQTARITCGGNNIGSKSVHWYQQKPGQAPVLVVYDDSDRPSGIPERFSGSNSGNTATLTISRVEAGDEADYYCQVWDSSSDHYVFGTGTKVTVLGQPKAAPSVTLFPPSSKKLQANKATLVCLISDFYPGAVTVAWKADSSPVKAGVETTTPSKQSNNKYAASSYLSLTPEQWKSHRSYSCQVTHEGSTVEKTVAPTECS
heavy 1: not shown
heavy 2: not shown
light 2: B1 light 2
notes: Bivalent CrossMab; knobs-into-holes
B3: Ang2VEGF-0284 (bispecific antibody, human IgG1, kappa)
light 1: B1 light 1 with E124K, Q125R
heavy 1: not shown
heavy 2: not shown
light 2: B1 light 2
notes: as for B2
B4: Ang2VEGF-0274 (bispecific antibody, human IgG1, kappa)
light 1: B1 light 1 with E124K, Q125K
heavy 1: not shown
heavy 2: not shown
light 2: B1 light 2
notes: as for B2
B5: Ang2VEGF-0394 (bispecific antibody, human IgG1, kappa)
light 1: B1 light 1 with E124K
heavy 1: not shown
heavy 2: not shown
light 2: B1 light 2
notes: as for B2
B6: Ang2VEGF-0286 (bispecific antibody, human IgG1, kappa)
light 1: B1 light 1 with E124K, Q125K
heavy 1: not shown
heavy 2: not shown
light 2: B1 light 2 with Q140E
notes: as for B2
B7: Ang2VEGF-0396 (bispecific antibody, human IgG1, kappa)
light 1: B1 light 1 with Q125K
heavy 1: not shown
heavy 2: not shown
light 2: B1 light 2
notes: as for B2
B8: Ang2VEGF-0397 (bispecific antibody, human IgG1, kappa)
light 1: B1 light 1 with Q125K
heavy 1: not shown
heavy 2: not shown
light 2: B1 light 2
notes: as for B2
B9: Ang2VEGF-0285 (bispecific antibody, human IgG1, kappa)
light 1: B1 light 1 with E124K, Q125R
heavy 1: not shown
heavy 2: not shown
light 2: B1 light 2 with Q140E
notes: as for B2
B10: Ang2VEGF-0282 (bispecific antibody, human IgG1, kappa)
light 1: B1 light 1 with E124K, Q125R
heavy 1: not shown
heavy 2: not shown
light 2: B1 light 2 with Q140E
notes: as for B2
B11: Ang2VEGF-0395 (bispecific antibody, human IgG1, kappa)
light 1: B1 light 1 with E124K
heavy 1: not shown
heavy 2: not shown
light 2: B1 light 2
notes: as for B2

The target of the first test is T1, human Ang-2-RBD-Fc. As to the kind of experiment: SPR (Biacore T200), antibody captured via anti-human F(ab')2, Ang2-RBD-Fc in solution, apparent KD, 1:1 Langmuir.
Procedure: Binding of indicated antibodies to human Ang-2-RBD-Fc was investigated by surface plasmon resonance using a BIACORE™ T200 instrument (GE Healthcare). […] HBS-N (10 mM HEPES, 150 mM NaCl pH 7.4, GE Healthcare) was used as running buffer during the immobilization procedure. For the following kinetic characterization, sample and running buffer was PBS-T (10 mM phosphate buffered saline including 0.05% Tween® 20) at pH 7.4. The flow cell was set to 25° C.—and the sample block set to 12° C.—and primed with running buffer twice prior to kinetic characterization.
The bispecific antibody was captured by injecting a 5 nM solution for 25 sec at a flow of 5 μl/min. The association was measured by injection of human Ang2-RBD-Fc in various concentrations in solution for 120 sec at a flow of 30 μl/min starting with 100 nM in 1:3 serial dilutions. The dissociation phase was monitored for up to 180 sec and triggered by switching from the sample solution to running buffer. The surface was regenerated by 60 sec washing with a Glycine pH 2.1 solution at a flow rate of 30 μl/min. Bulk refractive index differences were corrected by subtracting the response obtained from a goat anti human F(ab′)₂ surface. Blank injections are also subtracted (=double referencing). For calculation of apparent KD the Langmuir 1:1 model was used.
As to B1, the Kd turned out to be 15 nM.
The same measure, in the same setting: in the case of B2 it was 15 nM; in that of B3, 13 nM.
On the same count and under the same terms, in the case of B4 it was 17 nM.
On the same count and under the same terms, for B5 the value was 12 nM; for B6, 12 nM; for B7, 17 nM.
In the case of B8, the Kd worked out at 14 nM.
On the same count and under the same terms, in the case of B9 it was 14 nM; in that of B10, 14 nM.
Turning to B11, the Kd is 15 nM.

For the next test, the target named is T2, human VEGF-A-121-His. As to the kind of experiment: SPR (Biacore T200), VEGF-A-121-His captured via anti-His, antibody in solution, 1:1 Langmuir.
Procedure: HBS-N (10 mM HEPES, 150 mM NaCl pH 7.4, GE Healthcare) was used as running buffer during the immobilization procedure. For the following kinetic characterization, sample and running buffer was PBS-T (10 mM phosphate buffered saline including 0.05% Tween® 20) at pH 7.4. The flow cell was set to 25° C.—and the sample block set to 12° C.—and primed with running buffer twice prior to kinetic characterization.
The association was measured by injection of the indicated antibodies in various concentrations in solution for 180 sec at a flow of 30 μl/min starting with 1000 nM in 1:3 serial dilutions. The dissociation phase was monitored for up to 600 sec and triggered by switching from the sample solution to running buffer. The surface was regenerated by 60 sec washing with a Glycine pH 1.5 solution at a flow rate of 30 μl/min. Bulk refractive index differences were corrected by subtracting the response obtained from a anti His antibody surface. Blank injections are also subtracted (=double referencing). For calculation of KD and other kinetic parameters the Langmuir 1:1 model was used.
In the case of B1, the Kd is 6 nM.
Turning to B2, the Kd amounted to 4 nM.
Same read-out and setting: in the case of B3 it was 4 nM; in that of B4, 3 nM.
Same read-out and setting: for B5 the value was 3 nM; for B6, 4 nM.
B7 showed a Kd of 3 nM.
Same read-out and setting: for B8 the value was 4 nM.
The same measure, in the same setting: in the case of B9 it was 4 nM; in that of B10, 4 nM; in that of B11, 4 nM.
